From article PMC9936545, “Diurnal Fluctuations of Orexin-A and -B in Cynomolgus Monkey Cerebrospinal Fluid Determined by a Novel Analytical Method Using Antiadsorptive Additive Treatment Followed by Nanoflow Liquid Chromatography–High-Resolution Mass Spectrometry” (ACS Chemical Neuroscience, 2023)
Where no end group is shown, it is not given here.

Columns and labels:
[1] = Recovery of spiked OXA and OXB during syringe and tube transfer in monkey CSF (nonspecific binding); format: physicochemical, cynomolgus monkey; details: nanoLC-HRMS; for recovery (%), spike recovery: spiked at final 100 pg/mL
Method: To overcome those problems, a mixture of 20 mM citric acid and 0.1% (w/v) Tween 80 (final concentrations) was added to the monkey CSF. […] Next, recovery during syringe transfer was assessed using the following procedure (Figure S2). […] Then, the spiked CSF was collected from the tube using a needle and a syringe. To the tube, 6 μL of 1M citric acid and 3 μL of 10% (w/v) Tween 80 were added, and the 300 μL of spiked CSF was returned from the syringe to the tube. The tube, the needle, and the syringe were rinsed by pipetting with CSF containing 20 mM citric acid and 0.1% (w/v) Tween 80 (final concentrations).
The samples were prepared in triplicate. […] The whole sample was removed from the tube using an injection needle (25G, Terumo Corporation, Tokyo, Japan) and a syringe (Terumo Corporation, Tokyo, Japan). Then, 1 M citric acid (6 μL) and 10% (w/v) Tween 80 (3 μL) were added to the empty tube to reach the final concentrations of 20 mM and 0.1%. The sample was returned from the syringe to the tube. The tube and syringe were then rinsed by pipetting five times with the CSF containing 20 mM citric acid and 0.1% (w/v) Tween 80. Finally, the whole sample was transferred to another tube. Recovery during tube transfer was assessed after repeating the procedure three times with monkey CSF containing 20 mM citric acid and 0.1% (w/v) Tween 80. The reference sample was prepared without syringe transfer, pipetting, or tube transfer. Recovery was calculated based on the quantitative values, which were the total values of endogenous and spiked orexins, in the testing samples to that in the reference sample.
CSF collection from cynomolgus monkey (A). Eppendorf Protein LoBind® tubes (1.5mL) were used for sample preparation. The syringe and needle used for CSF collection were washed by pipetting five times with collected CSF including anti- adsorptive additives to prevent non-specific adsorption to the instruments. Recovery test during syringe and tube transfer (B). Eppendorf Protein LoBind® tubes (1.5mL) were used for sample preparation. A tube containing neat CSF spiked with the standards for
The spiked CSF was collected from the tube using a needle and a syringe.
The tube, the needle, and the syringe were rinsed by pipetting five times w ith CSF containing citric acid/Tween 80.

[2] = OXA and OXB in cisternal CSF collected with and without antiadsorptive additives; format: in vivo, cynomolgus monkey; details: cisternal CSF at 17:00, collected on different days; additives 20 mM citric acid and 0.1% (w/v) Tween 80; N = 5 for OXA, N = 4 for OXB
Method: LoBind tubes were used for preparing the nanoLC-HRMS samples. The IS working solution (60 μL) was mixed with a CSF, calibration curve, SQC, or RQC (50 μL) sample. Samples for the calibration curves were added with freshly prepared calibration standards (5 μL) corresponding to 2.5, 5, 20, 25, 50, 100, and 250 pg/mL, while DMSO (5 μL) was added to other samples. The samples were mixed with 10% (v/v) phosphoric acid (20 μL) and then centrifuged at 18,360g for 5 min at 4 °C. The supernatant (120 μL) was loaded into an HLB μElution plate and washed with 200 μL of methanol/water mixture (5:95, v/v). Orexins and ISs were eluted with 200 μL of acetonitrile/water/formic acid (80:20:0.1, v/v/v). After centrifugation at 4283g for 5 min at 4 °C, the supernatant (180 μL) was evaporated to dryness under a stream of nitrogen gas at room temperature. The precipitates were reconstituted in 40 μL of acetonitrile/water/trifluoroacetic acid (TFA) (4:96:0.01, v/v/v). After centrifugation at 12,000g for 10 min at 4 °C, the supernatant (5 μL) was used for nanoLC-HRMS.
NanoLC-HRMS was performed on an EASY-nLC 1200 system (Thermo Fisher Scientific, Inc., Waltham, MA) and a Q Exactive HF-X Orbitrap mass spectrometer (Thermo Fisher Scientific) equipped with an electrospray ionization interface. […]

[3] = Processed sample stability in autosampler; format: physicochemical, cynomolgus monkey; details: autosampler at 10 °C
Method: Reproducibility was evaluated by intraday and interday assays of spiked quality control (QC) in the surrogate matrix (SQC) and in the real matrix (RQC). […] Carry-over was assessed by injecting blank samples immediately after a calibration standard at the upper limit of quantification. […] The preparation and storage of all CSF samples were conducted under the stable conditions described above.
Working IS solutions at 500 pg/mL were prepared by diluting the IS stock solutions with a mixture of 0.1% (w/v) bovine serum albumin and 20 mM citric acid and 0.1% (w/v) Tween 80 (final concentrations) in Dulbecco’s phosphate-buffered saline (PBS) as the surrogate matrix. The surrogate matrix was used as a blank matrix for the calibration curve, SQC samples for method qualification, and blank samples. […] RQC samples, which were monkey CSF containing 20 mM citric acid and 0.1% (w/v) Tween 80, were also prepared to confirm the parallel between the surrogate and real matrices. […] Stability was evaluated based on the difference from the initial sample. The processed sample stability was evaluated using three replicates of real matrix. […] The stored samples were reinjected with freshly processed calibration samples. The processed sample stability was evaluated to compare the back-calculated concentrations. […]

[4] = Stability of OXA and OXB in real matrix (monkey CSF with 20 mM citric acid and 0.1% Tween 80); format: in vitro ADME, cynomolgus monkey
Method: Reproducibility was evaluated by intraday and interday assays of spiked quality control (QC) in the surrogate matrix (SQC) and in the real matrix (RQC). […] Carry-over was assessed by injecting blank samples immediately after a calibration standard at the upper limit of quantification.
Working IS solutions at 500 pg/mL were prepared by diluting the IS stock solutions with a mixture of 0.1% (w/v) bovine serum albumin and 20 mM citric acid and 0.1% (w/v) Tween 80 (final concentrations) in Dulbecco’s phosphate-buffered saline (PBS) as the surrogate matrix. The surrogate matrix was used as a blank matrix for the calibration curve, SQC samples for method qualification, and blank samples. […] RQC samples, which were monkey CSF containing 20 mM citric acid and 0.1% (w/v) Tween 80, were also prepared to confirm the parallel between the surrogate and real matrices. […] Stability was evaluated based on the difference from the initial sample. The processed sample stability was evaluated using three replicates of real matrix. […] The stored samples were reinjected with freshly processed calibration samples. The processed sample stability was evaluated to compare the back-calculated concentrations.

Orexin-A (QPLPDCCRQKTCSCRLYELLHGAGNHAAGILTL; not fully specified; ends and bridges not checked; UniProt O43612 34-66, looked up) [OXA, 33-amino acid peptide with N-terminal pyroglutamylation, amidation of the C-terminal leucine, and two intramolecular disulfide bridges]
recovery (%), tube transfer (3 times) ([1]; monkey CSF containing 20 mM citric acid/0.1% (w/v) Tween 80, three tube transfers, LoBind tubes, mean ± SD, N = 3): 105.2 ± 12.1%
recovery (%), syringe and tube transfer ([1]; monkey CSF spiked with OXA and OXB (3 μL of 10 ng each/mL in DMSO + 297 μL CSF), LoBind tube, 25G needle and syringe, 20 mM citric acid/0.1% (w/v) Tween 80 added after syringe collection, rinsed by pipetting five times, vs reference sample, mean ± SD, N = 3): 100.6 ± 9.4%
recovery (%), spike recovery ([1]; monkey CSF with 20 mM citric acid/0.1% (w/v) Tween 80, mean ± SD, N = 3): 107.1 ± 3.8%
recovery ([1]; monkey CSF with addition of 0.01% (v/w) Tween 80 alone): 106.1%
recovery (%), spike recovery ([1]; neat monkey CSF, no additives, mean ± SD, N = 3): 41.6 ± 3.9%
concentration ratios between samples without and with the antiadsorptive additives, mean [2]: 30.7%
time stable in autosampler (processed sample stability) ([3]; processed real-matrix samples, reconstituted in acetonitrile/water/TFA (4:96:0.01), three replicates): at least 48 h
percent remaining after 48 h, difference from the initial analysis ([3]; processed samples, 48 h, three replicates of real matrix, within ±): ≤ 15%
percent difference in QC samples for stability evaluation from the initial sample ([4]; freeze–thaw (3 cycles, −80 °C), room temperature 2 h, −80 °C 60 days, real matrix QC in triplicate, within ±): ≤ 15%
stability in real matrix, three freeze–thaw cycles ([4]; monkey CSF with 20 mM citric acid and 0.1% (w/v) Tween 80, unspiked and spiked (25 and 125 pg/mL) QC samples in triplicate, three freeze–thaw cycles at −80 °C, nanoLC-HRMS): stable
stability in real matrix at room temperature ([4]; monkey CSF with 20 mM citric acid and 0.1% (w/v) Tween 80, unspiked and spiked QC samples in triplicate, room temperature for 2 h, nanoLC-HRMS): stable
stability in real matrix at −80 °C ([4]; monkey CSF with 20 mM citric acid and 0.1% (w/v) Tween 80, unspiked and spiked QC samples in triplicate, −80 °C for 60 days, nanoLC-HRMS): stable
